In test [1] the target is Myc-Pk (Drosophila Prickle) (UniProt A1Z6W3). Put plainly: co-immunoprecipitation (IP α-Flag, IB α-Myc), western blot quantification. The conditions noted are these: S2 cells; 6 independent replicates; parent: est. 18; read off a plot.
Test [2] addresses Dsh-GFP (Drosophila Dishevelled) (UniProt P51140). Put plainly: co-immunoprecipitation (IP α-Flag, IB α-GFP), western blot quantification. The conditions noted are these: S2 cells, read off a plot.
The mark [3] stands for this setting: 6–7 replicates, parent: est. 12.

Sequence of UniProt P51140 (P51140 whole entry, looked up): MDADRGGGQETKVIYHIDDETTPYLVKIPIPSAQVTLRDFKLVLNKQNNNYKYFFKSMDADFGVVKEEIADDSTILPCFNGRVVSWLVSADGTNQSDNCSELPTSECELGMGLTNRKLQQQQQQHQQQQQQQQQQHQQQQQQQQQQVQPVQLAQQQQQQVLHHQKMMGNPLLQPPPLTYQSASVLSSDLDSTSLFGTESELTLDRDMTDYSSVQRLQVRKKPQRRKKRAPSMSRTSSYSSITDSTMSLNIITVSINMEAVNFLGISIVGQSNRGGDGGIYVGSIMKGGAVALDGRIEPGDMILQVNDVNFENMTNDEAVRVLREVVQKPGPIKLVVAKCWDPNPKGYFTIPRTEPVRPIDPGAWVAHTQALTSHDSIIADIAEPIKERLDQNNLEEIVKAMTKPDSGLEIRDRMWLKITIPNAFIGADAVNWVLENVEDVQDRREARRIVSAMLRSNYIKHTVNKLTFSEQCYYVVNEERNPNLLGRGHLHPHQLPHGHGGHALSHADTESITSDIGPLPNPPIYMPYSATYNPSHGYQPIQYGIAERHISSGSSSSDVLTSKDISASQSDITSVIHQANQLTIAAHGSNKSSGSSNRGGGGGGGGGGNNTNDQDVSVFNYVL
Sequence of UniProt A1Z6W3 (A1Z6W3 whole entry, looked up): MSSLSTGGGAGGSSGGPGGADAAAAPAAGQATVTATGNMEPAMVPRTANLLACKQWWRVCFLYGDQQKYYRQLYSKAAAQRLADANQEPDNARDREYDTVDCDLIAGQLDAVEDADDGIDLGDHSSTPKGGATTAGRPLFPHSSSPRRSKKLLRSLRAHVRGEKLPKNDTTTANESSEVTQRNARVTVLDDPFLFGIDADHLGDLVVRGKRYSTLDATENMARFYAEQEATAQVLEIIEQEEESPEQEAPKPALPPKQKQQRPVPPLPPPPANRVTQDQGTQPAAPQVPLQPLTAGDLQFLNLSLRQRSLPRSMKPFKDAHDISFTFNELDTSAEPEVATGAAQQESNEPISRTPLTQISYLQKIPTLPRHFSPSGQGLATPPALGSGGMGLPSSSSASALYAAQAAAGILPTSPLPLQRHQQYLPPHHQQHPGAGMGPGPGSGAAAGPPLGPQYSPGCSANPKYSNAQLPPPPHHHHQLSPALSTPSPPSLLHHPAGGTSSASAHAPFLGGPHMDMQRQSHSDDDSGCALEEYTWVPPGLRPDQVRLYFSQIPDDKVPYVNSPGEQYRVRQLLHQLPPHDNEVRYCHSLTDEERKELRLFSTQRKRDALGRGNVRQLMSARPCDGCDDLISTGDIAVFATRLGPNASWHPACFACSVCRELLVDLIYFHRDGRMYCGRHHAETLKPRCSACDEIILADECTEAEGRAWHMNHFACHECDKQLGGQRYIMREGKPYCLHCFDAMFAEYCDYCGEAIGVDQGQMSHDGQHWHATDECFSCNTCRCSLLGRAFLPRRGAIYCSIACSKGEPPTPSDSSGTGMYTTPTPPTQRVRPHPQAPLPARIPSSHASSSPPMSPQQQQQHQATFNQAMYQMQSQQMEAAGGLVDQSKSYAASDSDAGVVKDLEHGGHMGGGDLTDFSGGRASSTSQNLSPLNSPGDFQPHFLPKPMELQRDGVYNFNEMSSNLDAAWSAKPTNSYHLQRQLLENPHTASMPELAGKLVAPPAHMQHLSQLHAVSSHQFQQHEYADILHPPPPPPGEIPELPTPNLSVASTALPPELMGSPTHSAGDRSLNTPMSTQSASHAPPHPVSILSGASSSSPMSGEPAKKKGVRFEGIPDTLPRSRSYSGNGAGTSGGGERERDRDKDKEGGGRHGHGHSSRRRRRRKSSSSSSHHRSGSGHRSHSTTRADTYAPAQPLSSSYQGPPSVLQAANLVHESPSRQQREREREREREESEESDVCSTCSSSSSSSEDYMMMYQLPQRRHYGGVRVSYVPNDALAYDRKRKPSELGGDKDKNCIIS

As to “Vang-Flagx3 (Drosophila Van Gogh, wild type) Y374A”, the response in test [1] and in test [2] (setting [3]) was 2.5 a.u in each case. Consider “Vang-Flagx3 (Drosophila Van Gogh, wild type) F371A; K372A; Y374A”, for which the response is 1 a.u in test [1] and 1.6 a.u in test [2] (setting [3]). “Vang-Flagx3 (Drosophila Van Gogh, wild type) V376A”: the response in test [2] (6 replicates, parent: est. 9.6) is 2.5 a.u.

The record behind these values is article PMC10381084.
